Data reported in PMC12079668, “Nanobodies against Cavin1 reveal structural flexibility and regulated interactions of its N-terminal coiled-coil domain” (Journal of Cell Science, 2025).

B1: Nanobody NbB7 (VHH)
VHH: QVQLQESGGGLVQAGGSLRLSCAVSGIRVNVNAMYWYRQAPGKQRELVAIITTFGSTNYADSAKGRFTISRDNTKNTVYLQMDNLKPEDTAVYYCNAPQFTDRYWGQGTQVTVSS
notes: the same chain is in PDB 9EGN, 9EG6 and 9EIU; source: E. coli WK6, periplasmic expression, purified (TALON, SEC)
B2: nanobody NbB7 (VHH)
VHH: QVQLQESGGGLVQAGGSLRLSCAVSGIRVNVNAMYWYRQAPGKQRELVAIITTFGSTNYADSAKGRFTISRDNTKNTVYLQMDNLKPEDTAVYYCNAPQFTDRYWGQGTQVTVSS
notes: also in the deposited structures PDB 9EGN, 9EG6, 9EIU; alpaca nanobody raised against mC1-HR1; Cloned in pMES4 with a C-terminal 6x histidine tag; source: E. coli WK6, periplasmic expression, purified (TALON, SEC); not shown: His6, C-terminal, kept
B3: C-terminal GFP-tagged NbB7 (VHH)
VHH: QVQLQESGGGLVQAGGSLRLSCAVSGIRVNVNAMYWYRQAPGKQRELVAIITTFGSTNYADSAKGRFTISRDNTKNTVYLQMDNLKPEDTAVYYCNAPQFTDRYWGQGTQVTVSS
notes: as the VHH of m1; pEGFP-N1; also called NbB7–GFP; source: HeLa, transiently transfected, in lysate; not shown: GFP, C-terminal, kept
B4: Nanobody NbA12 (VHH)
VHH: QVQLQESGGGLVQAGGSLRLSCAASGFTFDDYAIGWFRQAPGKEREGVSCITSSDGSTYYADSVKGRFTISSDNAKNTVYLQMNSLKPEDTAVYYCAAESWPPLCHYSGMDYWGKGTQVTVSS
notes: Selected by phage display from an alpaca immunised with mC1-HR1; source: E. coli WK6, periplasmic expression, purified (TALON, SEC)
B5: nanobody NbA12 (VHH)
VHH: QVQLQESGGGLVQAGGSLRLSCAASGFTFDDYAIGWFRQAPGKEREGVSCITSSDGSTYYADSVKGRFTISSDNAKNTVYLQMNSLKPEDTAVYYCAAESWPPLCHYSGMDYWGKGTQVTVSS
notes: alpaca nanobody raised against mC1-HR1; Cloned in pMES4 with a C-terminal 6x histidine tag; source: E. coli WK6, periplasmic expression, purified (TALON, SEC); not shown: His6, C-terminal, kept
B6: mouse Cavin1 HR1 domain (residues 45–155) as crystallised with NbB7 (domain or fragment, UniProt O54724 45-155, looked up)
chain: LIKSDQVNGVLVLSLLDKIIGAVDQIQLTQAQLEERQAEMEGAVQSIQGELSKLGKAHATTSNTVSKLLEKVRKVSVNVKTVRGSLERQAGQIKKLEVNEAELLRRRNFKV
notes: mouse Cavin1 (PTRF), HR1 coiled-coil domain, residues 45-155 in the crystallised construct; residues 56-98 ordered; also called mC1-HR1; source: E. coli, purified (SEC)

What was measured:
[1] = target: T1, mouse Cavin1 HR1 H102I/T105I (HT/II) mutant (Mus musculus, UniProt O54724, H102I | T105I); test: ITC; 200 μM NbA12 or NbB7 titrated into 6.25 μM trimeric mC1-HR1 HT/II or TS/DD mutant; GF150 buffer, 25°C; single-site fit; details: both partners purified
T1 construct: mouse Cavin1 (PTRF), HR1 domain with H102I and T105I; also called mC1 HR1 HT/II mutant; mC1-HR1(HT/II); source: E. coli BL21 CodonPlus (DE3), purified (glutathione Sepharose, GST removed on-column with thrombin, SEC); not shown: GST, N-terminal, cleaved

[2] = target: T2, mouse Cavin1 HR1 T105D/S106D (TS/DD) mutant (Mus musculus, UniProt O54724, T105D | S106D); test: as above; details: both partners purified
T2 construct: mouse Cavin1 (PTRF), HR1 domain with T105D and S106D (phosphomimetic); also called mC1 HR1 TS/DD mutant; mC1-HR1(TS/DD); source: E. coli BL21 CodonPlus (DE3), purified (glutathione Sepharose, GST removed on-column with thrombin, SEC); not shown: GST, N-terminal, cleaved

[3] = target: T3, zebrafish Cavin4b HR1 domain (residues 12-133) (Danio rerio (Zebrafish) (Brachydanio …, UniProt Q5PQY9)); test: ITC; NbA12 at 500 μM or NbB7 at 400 μM titrated into 30 μM (monomer) cavin HR1 domain or His-MBP full-length mC1; GF150 buffer (20 mM HEPES pH 7.4, 150 mM NaCl), 25°C; fitted with a 1:1 binding ratio; details: both partners purified
T3 construct: zebrafish Cavin4b, HR1 domain, residues 12-133 (codon-optimised construct); also called zC4b-HR1; zC4b HR1; source: E. coli BL21 CodonPlus (DE3), purified (TALON, SEC)

[4] = target: T4, mouse Cavin1 HR1 Q76A (residues 45-155) (Mus musculus, UniProt O54724, Q76A); test: as above; details: both partners purified
T4 construct: mouse Cavin1 (PTRF), HR1 domain, residues 45-155, Q76A; also called mC1 HR1 Q76A; source: E. coli BL21(DE3)pLysS, purified (TALON, SEC)

[5] = target: T5, mouse Cavin1 HR1 domain (residues 45–155), His-Ub-tagged (Mus musculus (Mouse)., UniProt O54724); test: ITC; NbA12 at 500 μM or NbB7 at 400 μM titrated into 30 μM (monomer) HR1 domain of cavins or His-MBP full-length mC1; GF150 buffer (20 mM HEPES pH 7.4, 150 mM NaCl), 25°C; single-site fit; details: both partners purified
T5 construct: mouse Cavin1 (PTRF), HR1 coiled-coil domain, residues 45-155; pHUE vector; the methods say the His-Ub proteins were used for ITC; removal of the tag is not described; also called mC1-HR1; wild-type HR1 domain; source: E. coli BL21(DE3)pLysS, purified (TALON, SEC)

[6] = target: T6, zebrafish Cavin4b HR1 domain (Danio rerio, UniProt A0A8M1N3J3); test: as above; details: both partners purified
T6 construct: zebrafish Cavin4b, HR1 domain; Codon-optimised construct; also called zC4b-HR1; source: E. coli BL21 CodonPlus (DE3), purified (TALON, SEC)

[7] = target: T7, mouse Cavin1 HR1 domain T105D/S106D (TS/DD) mutant (Mus musculus (Mouse)., UniProt O54724, T105D | S106D); test: ITC; 200 μM NbA12 or NbB7 titrated into 6.25 μM trimeric mC1-HR1 HT/II or TS/DD mutant; GF150 buffer, 25°C; single-site fit; details: both partners purified
T7 construct: mouse Cavin1 (PTRF), HR1 domain, residues 45-155, T105D/S106D (phosphomimetic); pGEX-4T2, GST removed with thrombin; also called mC1-HR1(TS/DD); source: E. coli BL21 CodonPlus (DE3), purified (glutathione Sepharose, thrombin on-column, SEC); not shown: GST, N-terminal, cleaved

[8] = target: T8, mouse Cavin1 HR1 domain H102I/T105I (HT/II) mutant (Mus musculus, UniProt O54724, H102I | T105I); test: as above; details: both partners purified
T8 construct: mouse Cavin1 (PTRF), HR1 domain, residues 45-155, H102I/T105I; pGEX-4T2, GST removed with thrombin; also called mC1-HR1(HT/II); source: E. coli BL21 CodonPlus (DE3), purified (glutathione Sepharose, thrombin on-column, SEC); not shown: GST, N-terminal, cleaved

endogenous Cavin1 (HeLa) = target: T9, endogenous Cavin1 (HeLa) (Homo sapiens (Human)., UniProt Q6NZI2); test: co-IP; lysates of HeLa cells expressing NbA12–GFP or NbB7–GFP, GFP-binding nanobody on NHS-activated Sepharose; 0.5% Triton X-100; endogenous Cavin1 and CAV1 detected by western blot; details: partners not purified
T9 construct: Cavin1 (PTRF), endogenous in human HeLa cells; also called PTRF; source: endogenous, HeLa lysate

endogenous CAV1 (HeLa) = target: T10, endogenous CAV1 (HeLa) (Homo sapiens (Human)., UniProt Q03135); test: as above; details: partners not purified
T10 construct: CAV1 (caveolin 1), endogenous in human HeLa cells; also called caveolin 1; source: endogenous, HeLa lysate

[9] = target: T11, zebrafish Cavin4a HR1 domain (residues 16-123) (Danio rerio, UniProt A1L260); test: ITC; NbA12 at 500 μM or NbB7 at 400 μM titrated into 30 μM (monomer) cavin HR1 domain or His-MBP full-length mC1; GF150 buffer (20 mM HEPES pH 7.4, 150 mM NaCl), 25°C; fitted with a 1:1 binding ratio; details: both partners purified
T11 construct: zebrafish Cavin4a, HR1 domain, residues 16-123 (codon-optimised construct); also called zC4a-HR1; zC4a HR1; source: E. coli BL21 CodonPlus (DE3), purified (TALON, SEC)

[10] = target: T12, GST-tagged mouse Cavin1 HR1 domain (Mus musculus (Mouse)., UniProt O54724); test: pull-down; GST–mC1-HR1 (1 nmol) as bait on glutathione Sepharose, His-tagged nanobodies (2 nmol) as prey; 20 mM HEPES, 150 mM NaCl, 1 mM DTT, 0.1% IGEPAL, pH 7.4; 4°C; SDS-PAGE; details: both partners purified
T12 construct: mouse Cavin1 (PTRF), HR1 coiled-coil domain, residues 45-155; pGEX-4T2 with thrombin site; GST kept for the pull-down and the liposome pelleting assay; also called GST–mC1-HR1; GST-tagged mC1-HR1; source: E. coli BL21 CodonPlus (DE3), purified (glutathione Sepharose); not shown: GST, N-terminal, kept

[11] = target: T13, full-length mouse Cavin1, His-MBP-tagged (Mus musculus (Mouse)., UniProt O54724); test: ITC; NbA12 at 500 μM or NbB7 at 400 μM titrated into 30 μM (monomer) HR1 domain of cavins or His-MBP full-length mC1; GF150 buffer (20 mM HEPES pH 7.4, 150 mM NaCl), 25°C; single-site fit; details: both partners purified
T13 construct: mouse Cavin1 (PTRF), full length; also called His-MBP full-length mC1; full-length MBP-tagged mC1; source: E. coli BL21(DE3)pLysS, purified (TALON, SEC)

[12] = target: T14, zebrafish Cavin4a HR1 domain (Danio rerio, UniProt A1L260); test: as above; details: both partners purified
T14 construct: zebrafish Cavin4a, HR1 domain; Codon-optimised construct; also called zC4a-HR1; source: E. coli BL21 CodonPlus (DE3), purified (TALON, SEC)

[13] = target: T15, N-terminal fragment of mouse Cavin1 HR1 domain (residues 45–103) (Mus musculus (Mouse)., UniProt O54724); test: as above; details: both partners purified
T15 construct: mouse Cavin1 (PTRF), N-terminal part of the HR1 domain, residues 45-103; also called mC1-HR1(45–103); shorter fragment of mC1-HR1; source: E. coli BL21(DE3)pLysS, purified (TALON, SEC)

[14] = target: the molecule itself; test: crystal structure; complex formed with 1.5-fold molar excess of NbB7 and purified by SEC; hanging-drop vapour diffusion, 20°C; X-ray

T3 sequence (Q5PQY9 entry or part of it): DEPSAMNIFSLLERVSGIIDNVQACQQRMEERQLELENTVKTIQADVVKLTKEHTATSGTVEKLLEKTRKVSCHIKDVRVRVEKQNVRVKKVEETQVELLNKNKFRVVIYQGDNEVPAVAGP
T11 sequence (A1L260 16-123): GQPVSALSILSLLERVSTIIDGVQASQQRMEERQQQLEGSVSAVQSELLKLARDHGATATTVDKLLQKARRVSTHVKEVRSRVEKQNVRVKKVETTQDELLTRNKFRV
T13 sequence (O54724 whole entry, the tested form may be a part): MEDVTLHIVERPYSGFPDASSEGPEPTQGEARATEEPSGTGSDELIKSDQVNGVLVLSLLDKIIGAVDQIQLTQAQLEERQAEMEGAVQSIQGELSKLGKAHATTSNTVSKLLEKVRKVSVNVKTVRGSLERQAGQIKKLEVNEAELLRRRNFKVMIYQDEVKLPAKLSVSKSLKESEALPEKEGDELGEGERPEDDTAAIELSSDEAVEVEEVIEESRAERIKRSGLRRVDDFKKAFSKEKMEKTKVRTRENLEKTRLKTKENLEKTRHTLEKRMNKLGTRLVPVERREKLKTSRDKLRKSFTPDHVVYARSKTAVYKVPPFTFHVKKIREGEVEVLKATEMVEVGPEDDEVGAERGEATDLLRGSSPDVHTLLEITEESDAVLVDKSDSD
T14 sequence (A1L260 whole entry, looked up, the tested form may be a part): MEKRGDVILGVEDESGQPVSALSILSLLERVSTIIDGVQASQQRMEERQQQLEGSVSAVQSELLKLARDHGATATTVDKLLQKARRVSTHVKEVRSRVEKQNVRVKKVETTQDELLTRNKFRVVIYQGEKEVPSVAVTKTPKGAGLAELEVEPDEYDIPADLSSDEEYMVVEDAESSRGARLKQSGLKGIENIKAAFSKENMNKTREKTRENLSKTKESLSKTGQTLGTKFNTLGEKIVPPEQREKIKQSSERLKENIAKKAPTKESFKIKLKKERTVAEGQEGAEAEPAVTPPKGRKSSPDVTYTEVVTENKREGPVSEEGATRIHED
T9 sequence (Q6NZI2 whole entry): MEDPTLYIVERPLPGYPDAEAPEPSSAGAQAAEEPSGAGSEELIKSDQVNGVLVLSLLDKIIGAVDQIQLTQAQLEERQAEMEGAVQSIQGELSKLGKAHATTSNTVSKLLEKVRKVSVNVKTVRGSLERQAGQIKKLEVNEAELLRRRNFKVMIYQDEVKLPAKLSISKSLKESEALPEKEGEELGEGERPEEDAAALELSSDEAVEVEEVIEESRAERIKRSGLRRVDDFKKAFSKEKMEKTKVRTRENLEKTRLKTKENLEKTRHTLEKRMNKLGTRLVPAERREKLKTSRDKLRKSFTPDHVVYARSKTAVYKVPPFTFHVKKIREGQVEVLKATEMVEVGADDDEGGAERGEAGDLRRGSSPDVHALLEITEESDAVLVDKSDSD
T10 sequence (Q03135 whole entry): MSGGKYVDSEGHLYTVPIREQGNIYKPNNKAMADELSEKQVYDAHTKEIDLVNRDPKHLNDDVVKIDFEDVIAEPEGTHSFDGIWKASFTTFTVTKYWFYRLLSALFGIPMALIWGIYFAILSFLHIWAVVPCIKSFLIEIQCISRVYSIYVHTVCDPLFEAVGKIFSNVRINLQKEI

Row | Binder | Kd [1] | Kd [2] | binding result [3] | binding result [6] | Kd [7] | Kd [8] | also measured
1 | B1 | 140 ± 40 nM | 67 ± 20 nM | no binding |  |  |  | Kd [4]: 2890 ± 1010 nM
2 | B2 |  |  |  | no binding | 66.7 nM | 142 nM | Kd [5]: 520 nM
3 | B3 |  |  |  |  |  |  | binding result (endogenous Cavin1 (HeLa)): binds; binding result (endogenous CAV1 (HeLa)): binds
4 | B4 | 3020 ± 1940 nM | 2170 ± 20 nM | no binding |  |  |  | binding result [9]: no binding
5 | B5 |  |  |  | no binding | 2000 nM | 3000 nM | binding result [10]: binds; binding result [5]: binds; binding result [11]: binds; binding result [12]: no binding; binding result [13]: binds
6 | B6 |  |  |  |  |  |  | stoichiometry N [14]: 3
